Experimental data: patent US20250296912A1

Target: prostate specific antigen (Homo sapiens)

Row | IC50 (48 hour exposure), Prostate DuPro (trace PSA) [nM] | IC50 (48 hour exposure), Prostate LnCAP (positive PSA) [nM] | Substance
1 | 280 | 190 | Analog 216 (Illudin M-Pro-Ser-Ser-Gln-Chg-Ser-Ser-Hyp-Ac) (peptide)
2 | 3500 | 810 | Analog 210 (Ac-Hyp-Ser-Ser-Chg-Gln-Ser-Ser-Pro-O-(CH2)3-acylfulvene) (peptide)
3 | – | > 20000 | Analog 215 (Illudin S-Pro-Ser-Ser-Gln-Chg-Ser-Ser-Hyp-Ac) (peptide)
